# Assay results from article PMC12218847 (Nature Communications, 2025).
# Columns and labels:
# [1] = biological target: His-tagged potato StISA1 (residues 48–793) (potato); test: AUC
# AUC = biological target: the molecule itself; test: AUC
stoichiometry N [1],Molecule,stoichiometry N (AUC)
2,His-tagged potato StISA1 (residues 48–793) (enzyme),
,"Arabidopsis AtISA1 (residues 44–783) with C-terminal 6×His-tag (enzyme, UniProt O04196 44-783, looked up) AKDRRSNEAENIAVVEKPLKSDRFFISDGLPSPFGPTVRDDGVNFSVYSTNSVSATICLISLSDLRQNKVTEEIQLDPSRNRTGHVWHVFLRGDFKDMLYGYRFDGKFSPEEGHYYDSSNILLDPYAKAIISRDEFGVLGPDDNCWPQMACMVPTREEEFDWEGDMHLKLPQKDLVIYEMHVRGFTRHESSKIEFPGTYQGVAEKLDHLKELGINCIELMPCHEFNELEYYSYNTILGDHRVNFWGYSTIGFFSPMIRYASASSNNFAGRAINEFKILVKEAHKRGIEVIMDVVLNHTAEGNEKGPIFSFRGVDNSVYYMLAPKGEFYNYSGCGNTFNCNHPVVRQFILDCLRYWVTEMHVDGFRFDLGSIMSRSSSLWDAANVYGADVEGDLLTTGTPISCPPVIDMISNDPILRGVKLIAEAWDAGGLYQVGMFPHWGIWSEWNGKFRDVVRQFIKGTDGFSGAFAECLCGSPNLYQGGRKPWHSINFICAHDGFTLADLVTYNNKNNLANGEENNDGENHNYSWNCGEEGDFASISVKRLRKRQMRNFFVSLMVSQGVPMIYMGDEYGHTKGGNNNTYCHDNYMNYFRWDKKEEAHSDFFRFCRILIKFRDECESLGLNDFPTAKRLQWHGLAPEIPNWSETSRFVAFSLVDSVKKEIYVAFNTSHLATLVSLPNRPGYRWEPFVDTSKPSPYDCITPDLPERETAMKQYRHFLDANVYPMLSYSSIILLLSPIKDP",2
,"His-tagged OsISA1 (amino acids 55–803) (enzyme, Oryza sativa (rice), UniProt D0TZF0 55-803, looked up) SVASAVEVGVGEDEEEGVEEEEEEVEAVVMPERYALGGACRVLAGMPAPLGATALDGGVNFAVYSAGASAASLCLFTPDDLEADEVTEEVPLDPLFNRTGNVWHVFIEGELHNMLYGYRFDGMFAPHCGQYFDVSNVVVDPYAKAVISRGEYGVPGPGGDCWPQMAGMIPLPYSTFDWQGDLPLRYPQKDLVIYEMHLRGFTKHSSSNVEHPGTYIGAISKLDYLKELGVNCVELMPCHEFNELEYFSCSSKMNFWGYSTINFFSPMIRYSSGGIRNCGRDAINEFKTFVREAHKRGIEVIMDVVFNHTAEGNEKGPILSFRGIDNSTYYMLAPKGEFYNYSGCGNTFNCNHPVVREFIVDCLRYWVTEMHVDGFRFDLASIMTRGCSLWDPVNVYGSPVEGDMTTTGTPLATPPLIDMISNDPILGDVKLIAEAWDAGGLYQVGQFPHWKIWSEWNGKYRDIVRQFIKGTDGFAGGFAECLCGSPHLYQAGGRKPWHSINFVCAHDGFTLADLVTYNKKYNSSNGEDNRDGENHNLSWNCGEEGEFAGLSVKRLRKRQMRNFFVSLMVSQGVPMFYMGDEYGHTKGGNNNTYCHDHYVNYFRWDKKEESSDLQRFCSLMTKFRKQCESLGLADFPTAQRLHWHGHQPGKPDWSETSRFVAFSTKDETKGEIYVAFNASHLPAVVGLPERPGYRWEPLVDTGKPAPYDFLTDDLPDRAHAVHLFSHFLNSNLYPMLSYSSIILELQPDD",2
,"His-tagged maize ZmISA1 (residues 45–789) (enzyme, UniProt O22637 45-789, looked up) AAARPVAEAVQAEEDDDDDDEEVAEERFALGGACRVLAGMPAPLGATALRGGVNFAVYSSGASAASLCLFAPGDLKADRVTEEVPLDPLLNRTGNVWHVFIHGDQLHGMLYGYRFDGVFAPERGQYYDVSNVVVDPYAKAVVSRGEYGVPAPGGSCWPQMAGMIPLPYNKFDWQGDLPLGYHQKDLVIYEMHLRGFTKHNSSKTKHPGTYIGAVSKLDHLKELGVNCIELMPCHEFNELEYFSSSSKMNFWGYSTINFFSPMARYSSSGIRDSGCGAINEFKAFVREAHKRGIEVIMDVVFNHTAEGNEKGPILSFRGIDNSTYYMLAPKGEFYNYSGCGNTFNCNHPVVREFIVDCLRYWVTEMHVDGFRFDLASILTRGCSLWDPVNVYGSPMEGDMITTGTPLVAPPLIDMISNDPILGNVKLIAEAWDAGGLYQVGQFPHWNVWSEWNGKYRDTVRQFIKGTDGFAGAFAECLCGSPQLYQAGGRKPWHSINFVCAHDGFTLADLVTYNSKYNLSNGEDNRDGENHNLSWNCGEEGEFASLSVRRLRKRQMRNFFVCLMVSQGVPMFYMGDEYGHTKGGNNNTYCHDHYVNYFRWDKKEEQSSDLYRFCRLMTKFRKECESLGLEDFPTSERLKWHGHQPGKPDWSEASRFVAFTMKDETKGEIYVAFNTSHLPVVVGLPERSGFRWEPVVDTGKEAPYDFLTDGLPDRAVTVYQFSHFLNSNLYPMLSYSSIILVLRPDV",2
